Substitutions are numbered along the chain they refer to.
B1: FAI: 9° N DM-derived polymerase with amino acids 408-410 FAI (protein, UniProt Q56366 1-775, looked up, variant D141A E143A L408F Y409A P410I A485L)
DNA polymerase: MILDTDYITENGKPVIRVFKKENGEFKIEYDRTFEPYFYALLKDDSAIEDVKKVTAKRHGTVVKVKRAEKVQKKFLGRPIEVWKLYFNHPQDVPAIRDRIRAHPAVVDIYEYDIPFAKRYLIDKGLIPMEGDEELTMLAFAIATLYHEGEEFGTGPILMISYADGSEARVITWKKIDLPYVDVVSTEKEMIKRFLRVVREKDPDVLITYNGDNFDFAYLKKRCEELGIKFTLGRDGSEPKIQRMGDRFAVEVKGRIHFDLYPVIRRTINLPTYTLEAVYEAVFGKPKEKVYAEEIAQAWESGEGLERVARYSMEDAKVTYELGREFFPMEAQLSRLIGQSLWDVSRSSTGNLVEWFLLRKAYKRNELAPNKPDERELARRRGGYAGGYVKEPERGLWDNIVYLDFRSFAISIIITHNVSPDTLNREGCKEYDVAPEVGHKFCKDFPGFIPSLLGDLLEERQKIKRKMKATVDPLEKKLLDYRQRLIKILANSFYGYYGYAKARWYCKECAESVTAWGREYIEMVIRELEEKFGFKVLYADTDGLHATIPGADAETVKKKAKEFLKYINPKLPGLLELEYEGFYVRGFFVTKKKYAVIDEEGKITTRGLEIVRRDWSEIAKETQARVLEAILKHGDVEEAVRIVKEVTEKLSKYEVPPEKLVIHEQITRDLRDYKATGPHVAVAKRLAARGVKIRPGTVISYIVLKGSGRIGDRAIPADEFDPTKHRYDAEYYIENQVLPAVERILKAFGYRKEDLRYQKTKQVGLGAWLKVKGKK
B2: CST: 9° N DM-derived polymerase with amino acids 408-410 CST (protein, UniProt Q56366 1-775, looked up, variant D141A E143A L408C Y409S P410T A485L)
DNA polymerase: B1 DNA polymerase with F408C, A409S, I410T
B3: YST: 9° N DM-derived polymerase with amino acids 408-410 YST (protein, UniProt Q56366 1-775, looked up, variant D141A E143A L408Y Y409S P410T A485L)
DNA polymerase: B1 DNA polymerase with F408Y, A409S, I410T
B4: AAA: 9° N DM-derived polymerase with amino acids 408-410 AAA (protein, UniProt Q56366 1-775, looked up, variant D141A E143A L408A Y409A P410A A485L)
DNA polymerase: B1 DNA polymerase with F408A, I410A

What follows are molecules tested on 3′ modified nucleotide (assay: Gel-based incorporation assay of Example 2, two cycles of enzymology on bead-bound 32P-labelled DNA template). Conditions: 45° C., 50 mM Tris, pH 8, 4 mM MgSO4, 0.05 (v/v) Tween, 50 μg/ml enzyme, 2 μM 3′ modified nucleotide; second cycle.
Format: biochemical
Experimental: The mutant polymerases were assessed for their ability to incorporate a 3′ blocked nucleotide analogue using a gel-based assay as described in generic form in Example 1. The rates of incorporation of the modified nucleotides were compared to purified forms of related DNA polymerases in both a single round of incorporation and through two rounds of nucleotide incorporation. The DNA template that was used for these experiments was a commercially-synthesised biotinylated oligonucleotide.
The method for two cycles of incorporation involves the binding of the DNA primer-template to streptavidin-coated beads (Dynalbeads). These are prepared as follows: • Resuspend beads in storage pot by pipetting up and down Take 20 μL beads • Wash 3×200 μL TE buffer (10 mM Tris HCl pH 7.5, 1 mM EDTA) Add 50 μL B&W buffer (5 mM Tris HCl, pH 7.5; 1M NaCl, […]) • 25 μL H2O • 25 μL of ^32P-labelled biotin DNA template (final concentration of 100 nM)
The first cycle of enzymatic incorporation is performed on these beads as follows:
Incorporation mix 1 is added to the bead pellet from above.
Reactions are incubated at 45° C. for 15 minutes
The first cycle of enzymology is then deblocked by treatment with tri(carboxyethyl) phosphine (TCEP) as follows:
Add 65 μL TCEP (100 mM) in water and incubate at 65° C. for 15 minutes
After removal of the TE buffer, a second cycle of enzymatic incorporation is then performed by the addition of incorporation mix 2, as follows:
Take 5 μL samples out at ½, 1, 2, 4, 10, 30, 60 mins and add to gel loading buffer with EDTA.
Heat all samples to 95° C. for 10 mins and load 3 μl on a 12% acrylamide gel (Sambrook and Russell, 2001).
Time (mins) to 50% product conversion on second cycle of enzymology at 45° C., 50 mM Tris, pH 8, 4 mM MgSO4, 0.05 (v/v) Tween, 50 μg/ml enzyme, and 2 μM 3′ modified nucleotide. Time to 50% product conversion on first cycle of incorporation shown in parentheses. For other mutants the time to 50% conversion on the first cycle was not measured in these experiments
B1 was tested, and the “Time (mins) to 50% product conversion on second cycle of enzymology” value was 2.2 min. For B2, the “Time (mins) to 50% product conversion on second cycle of enzymology” value was 19.5 min. With B3 the “Time (mins) to 50% product conversion on second cycle of enzymology” value was 2.1 min. For B4, the “Time (mins) to 50% product conversion on second cycle of enzymology” value was 6.9 min.

— patent publication US8460910B2 (Illumina Cambridge Limited, priority 2003, dated 2013)
